These results are taken from the NTF2 design screens of Basanta et al. (2020).

A short description of the series: protease stability score; higher = more stable; yeast display proteolysis, trypsin and chymotrypsin.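 Further: relative to predicted unfolded state with 0 unfolded-like and 1 meaning tenfold more protease.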
On to “SEDERDAHRILDEEFEAIWTGDEHFLRELLDPNVQMDFNGVKLHGRHAFREIFRRFDWVDRIRLEEIRIFNGKVEIHIREDGFIDGRRTNTTSVFFMEKVDGRWKVRKMRIG”, for which the protease stability score worked out at 1.66.

“DEDTELSKHFDDVFAEYVETGDEHSLRHLMDPNTRILVNGVDLVGWELVLDHLDRHLKEMRIKRVTTHEMRIYGDKVTIHSKLKMHIDGRDVDTDTEIIVKKVDGKWIMHFVNLH”: the protease stability score was found to be 2.25.

“SHDEELVERVLKMYKHAIETGDEELLTLLLDPDTRLEIDGVDFHGMDIAIHILFKELLRHGIRTEHMRVEDVKVQGDFVHVDVEVNIDVDGREETERRHLVLWKFNGRWRVKHHHIH” yielded a protease stability score of 2.35.

The sequence “HEDEEMLHRLAELVEELFRTGDEEMHDHLMDPHARINIDGRDLHGRENMRILWQKLGIERVHVEFHDVKAIGDKASVHTFLEVNGVKVEILIRSEKINGRWVITQINIVFH” showed a protease stability score of 0.386.

Sequence “SEHEEDFKKATHEILEIWETGDEHRMSEYLDPNTRLSIDGKNIHGREKVEEILRRHWERLGIDHLRIKDLRVHTIDGRMHLDILVRFHYNGVTIDVHLHFNLIKIDGKWYIRSILEIDR” displayed a protease stability score of 0.418.

Turning to “DEDEETLHEIVEILIRWLKTGDFDAVLKNLDPDARVEINGQELHGREQWYRYIHEEWKKVKNLTIIVSRMHVQGDKVMFEGEVHFDGQRRDVSIDMRVVNGRFRTIKKEVK”, the protease stability score is 1.28.

On to “SEDSEQALTIIEQLTKNLATGDEDTAEELVDPNVRINIGDKTIHGMHELSRFLLELRSEHRSHIRDVRVQGDKINVEGEDEIIIQVNGQEIRIRKHVHWIIDKIDGVWFVRSVNIH”, for which the protease stability score was 1.89.

Turning to “SEEQELLKKLAHENHESQRTGDEDFFHKLADPDARIRVGDKEIHGMEKVLEFWKTFRRQFKGLVVHLEDSHVINGQTFLHRNVNFNGVEEELEIILVVVDGRIKSIEIHLRRR”, the protease stability score is 0.653.

Take “SRESEEAKDDWEKIINDLRTGDFRSLRELFDPNVRLETENHEFHGWETAEHMVKRFDHIHVRREHFDHIEIQGEKVILDGTMRMEFIINGVVYEKEQRVIIIFLKYNGRWLIKEVEFI”: the protease stability score came out at 0.759.

“DEEREDVETHLRVLYDLILTGDEEDIRNLLDPHVRLDFNGKDIHGMERVSHHMRELRIERLEIKRWDVVNGRVHMDLHIVFHYGDKRRDTEVHVIMLKIDGRWHLESIHIK” returned a protease stability score of 2.21.

The sequence “TEEEKMAEKLWEILVKNAQTGDEDKVLKLIDPHTRFTFNGQTHHGRDTFHHLWKILGVDHVEPHSIEVQGDKAHIDSRLYFNGQVRTYTIIVEKINGRWIVTTIDLH” yielded a protease stability score of 1.

Take “SEEEKEARESIHRFEAALKTGNEESLFELLDPHVRIDVNGQELHGWKEWKHIVHENKKRVKGARFRIHHIEIINGRIHLDGEVSINGKDIRTEYIIEKIDGVWRLTEVIIR”: the protease stability score was found to be 1.28.

In turn, “DEEEHIMRRVTDILVHYIATGDEDSLTRLLDPHARIIIDGRTIHGREWIQHHLRRIDHIHMHSYHIHDIRIQGDKVYADQEIDVEHRVNGVTIRKRFHVNIITVKVNGQWYLHSINNQ” registered a protease stability score of 1.45.

The sequence “DEDKEESEKFFRDMHRAAETGDWREHLRLMDPHVRLVVGEYQHHGRETFEEILTEWFERVDHQELVIRHVRVYDGVADLDGEIIYHYGDKIIFVRYTIHVRKVDGRWRIKHIRIE” came in with a protease stability score of 0.476.

“EEEKESHQWILEVYMHTVRTGDPRMIKELLDPNVKLEAENREVHGREHVLKILWTKLHEMRIEHVTVEDVEVQGNKVRVHNEVHYTFDGQRDILKTEVIATKFDGRWHFKSLREK” returned a protease stability score of 0.222.

On to “DDHETEMIHWAELFAELIRTGDEEKLDKLLDPNVKIDINGRKFHGRESMRFALKHLRIHHVEIDDLKVQGDKSFWIGFVEGQIDGQRDRRHSTIELLLVNGRIKSVQLEFR”, for which the protease stability score came to 1.61.

“HEDEEIIERILREFLHYQNTGDEDELRKLADPNVRVIQGDKHFVGREEFRRWVHEHLSQVDHVELEIEDMRIVGDFVEIRGKLHNKAEGRSIKEEVRLVLFKFDGRWTLHDVRVH” returned a protease stability score of 2.09.

In turn, “SEEEELARHSIEVMIRLYETGDWDSSVDMADPHTRVHINGRDLIGREFYSEWSKEHLKRYKNATIILEDHEVQGNKVKVRIRIIVGDKESEIIFYILKINGRWIWHTVEVR” registered a protease stability score of 2.19.

In turn, “DSSENFMRHMMEEVWNALVTGDEKLFQRLADPDVRLHFNGVHTHGRENVLTFLRSLDEHLGVKHRSIHDFTIVGDYSHIDTTMEVGDKHWRIHLFLVIIDGRVHHIEIRIE” gave a protease stability score of 2.23.

Take “DDETEHLEKSVRDLVTSIKTGNWEEFYKMFDPNMRVDINGQQYHGRENAVEMVRQLWERLGAKHVHLTEIRYYGDKLELIMHVHFDGRDKEEEYIAVKIDGRWLLTEVRFK”: the protease stability score worked out at 2.08.

As to “SEDSERAREVWEDLFKAILTGDEDLLRELVDPNVRLEIGDKELVGWEHMIYHLRDHLRRYKNMRLELRIRHVEHQGDKLHLNVLLILIQGDKRIEFEVEVLIEKVNGRWILKEIRIK”, the protease stability score came out at 1.38.

For the sequence “EEEAAHQFNKWLSLMKHGNEHKASEMLDKDAHIKVGDKTLQGREDVQRDVRRRKEELKFSMTIVDYKDHGDKARLTVEQTNDHNGRPRTRRANVTVHVSNGRVKEIVINDDS”, the protease stability score was -0.16.

As to “DKEEKELEELVKLMVELSDTGDWKTFYQLADPHTKLHNLVDGKWDEQHGRENFVEVERKLRERFKGLRVERHDISVQGNKVHVDVILHVNGREMEIDEVFVIINGKLESVEIHVR”, the protease stability score came out at 1.19.

Sequence “DEDEEMSRIALNLFIHAMDTGDEHTLTHLMDPNVQLQINGREIIGREEVIRFVRELGVKHVKSHRLRDMELQGDKIIIDAEVEESQGDKEHHFRHTIVFRKVNGRWIIQSIKIK” displayed a protease stability score of 2.13.

“DHDDEESKHWLEFYLEIVQTGDEDSHKRLADPNTRLHIDGQVMHGREFMTMWFRHLVSKFKNARVEIRLRDTRKINGRVELDVELIFRVGDKEERREVQIFADKVDGRWHIKEFVVH” registered a protease stability score of 2.22.

On to “SEDEEMSHNIAKMWVDALMTGDEEVLHNLADPRVRLDINGVIVHGREEFTKTMEDKLRHMRIHHINIRDIDIQGDYVRVDVRSDIFVDGKRHHVTTTLIIFKVNGRWLLHEIVVR”, for which the protease stability score was found to be 1.95.

“SEEEEESRRFMQHMSRSLATGDWRQVRNLLDPHVRTDINGRDLHGWRDYVRHVLELGIKHIHIEDIRLVGDYAHIDGEMDVNGRDVRVHILVLKINGRWVIESEELK”: the protease stability score amounted to 0.427.

For the sequence “TEEDHELRLAHEELHRDLDTGDWESFMRYMDPRARVHYNGREFIGREFAVKFYLDVLNKYKGLTFRIHDIRIFDGVLFVRVKFHFDGQWLHSSEVALKVNGQWHNHHVSFI”, the protease stability score was 0.611.

With “SEDEIAVKKFMQRWIEAVHTGNEDVLTELADPNYRIIFEGRNLHGMDQILHDVRRVDVLEERMHVTSVDSQGDKIHIHGTLQVHFHVGDKQIDIHTQVTWHMLKIDGVWILKKVEIH”, the protease stability score came to 1.39.

The sequence “DEEEHNSQYAEELHIHLQETGDFEEFKKNVDPHVRLHSEINGKELRLHGRKIAEWLIEFWIKRIPNATIELHDSSIYNGKMHLDQRIKIGDKSMIVIVILEKVNGVWRVREMHITVR” showed a protease stability score of 1.37.

“DEEDEHLHQFLEDFKHNLKTGNFEAISKNADPHVRVIFNGRRFHGMENVKRLWEELGVDHVRIDHFELIDGRIDLNTTIEQGDKHRRTRLHILIVNGRIKSIHIHFE” gave a protease stability score of 1.16.

The sequence “TEQEHDMERLIEILIHSWRTGNEDELRRQIDPNARIDIGDKHFHGREFAIKHLSELRIKDFKLQHLDVQGDKVNVEGHLEGEINGRDDRYRYWIFVSKVNGQWFVERFHIV” yielded a protease stability score of 1.5.

On to “SEEERRYELFLNLLREIMETGDEHRRSNLMDPHVRFDWNGVEFHGREMLEFIIERLHKEARLESYEIHRVTLIGDKIELRVREKRRVGNKIIEWDVIIIVRKIDGKWTIEEVEIR”, for which the protease stability score worked out at 1.63.

Take “DETKEAFDRAIEKLSRWMFTGDEDKVDHLMDPDVRIEQGDKELHGMEDARRYLTEIRVKVRDMKITHMRIYDGRIDIDGETHLEVKVGDKHLHIDTRVYIDSYKVDGRWFFHEIRIK”: the protease stability score was found to be 0.98.
